Laboratory results published in PMC10250233.
pKd: −log10 of the molar value. Values joined by “and” are separate entries in the source; they are usually repeats but may differ in a detail not shown here. Identical values can stand only once.

Experiments:
Assay in all cases: fluorescence anisotropy
RPA AroB (human) = conditions: FA: 200 mM NaCl, KCl or LiCl, 20 mM HEPES pH 7.4, 1 mM DTT, 22-25 C, 375 or 750 pM oligo, Kd,app +/- SEM; EMSA: 20 mM HEPES pH 7.4, 200 mM KCl, 1 nM 32P oligo
RPA AroC (human) = conditions: FA: 200 mM NaCl, KCl or LiCl, 20 mM HEPES pH 7.4, 1 mM DTT, 22-25 C, 375 or 750 pM oligo, Kd,app +/- SEM; EMSA: 20 mM HEPES pH 7.4, 200 mM KCl, 1 nM 32P oligo
RPA AroA (human) = conditions: FA: 200 mM NaCl, KCl or LiCl, 20 mM HEPES pH 7.4, 1 mM DTT, 22-25 C, 375 or 750 pM oligo, Kd,app +/- SEM; EMSA: 20 mM HEPES pH 7.4, 200 mM KCl, 1 nM 32P oligo
[1] = target: RPA WT (RPA70-RPA32-RPA14) (human) (UniProt P27694+P15927+P35244); conditions: FA: 200 mM NaCl, KCl or LiCl, 20 mM HEPES pH 7.4, 1 mM DTT, 22-25 C, 375 or 750 pM oligo, Kd,app +/- SEM; EMSA: 20 mM HEPES pH 7.4, 200 mM KCl, 1 nM 32P oligo
Chain of RPA WT (RPA70-RPA32-RPA14) (human) (P27694 whole entry, chain 1 of 3): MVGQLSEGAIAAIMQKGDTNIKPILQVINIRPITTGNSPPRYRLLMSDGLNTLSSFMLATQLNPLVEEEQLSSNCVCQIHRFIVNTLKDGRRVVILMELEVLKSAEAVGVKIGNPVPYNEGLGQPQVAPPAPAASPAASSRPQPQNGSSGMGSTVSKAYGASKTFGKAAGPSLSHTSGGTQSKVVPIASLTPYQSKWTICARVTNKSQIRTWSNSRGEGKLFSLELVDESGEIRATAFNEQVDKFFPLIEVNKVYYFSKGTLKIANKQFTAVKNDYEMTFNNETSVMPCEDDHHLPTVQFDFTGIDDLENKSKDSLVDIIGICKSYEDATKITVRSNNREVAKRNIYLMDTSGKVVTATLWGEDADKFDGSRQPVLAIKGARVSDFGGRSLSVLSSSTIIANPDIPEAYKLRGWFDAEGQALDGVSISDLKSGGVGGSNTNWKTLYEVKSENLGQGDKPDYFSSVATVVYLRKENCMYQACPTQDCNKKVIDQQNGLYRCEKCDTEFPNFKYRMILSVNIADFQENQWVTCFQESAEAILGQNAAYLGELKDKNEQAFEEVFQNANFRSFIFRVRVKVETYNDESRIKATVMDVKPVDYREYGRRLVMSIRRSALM
Chain of RPA WT (RPA70-RPA32-RPA14) (human) (P15927 whole entry, chain 2 of 3): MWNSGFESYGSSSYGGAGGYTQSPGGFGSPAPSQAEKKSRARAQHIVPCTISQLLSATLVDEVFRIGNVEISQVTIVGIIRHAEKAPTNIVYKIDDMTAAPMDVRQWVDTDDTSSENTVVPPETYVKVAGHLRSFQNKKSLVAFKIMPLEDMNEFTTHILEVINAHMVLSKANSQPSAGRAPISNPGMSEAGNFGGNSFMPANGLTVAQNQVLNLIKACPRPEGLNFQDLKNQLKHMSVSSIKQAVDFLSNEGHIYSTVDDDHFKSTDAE
Chain of RPA WT (RPA70-RPA32-RPA14) (human) (P35244 whole entry, chain 3 of 3): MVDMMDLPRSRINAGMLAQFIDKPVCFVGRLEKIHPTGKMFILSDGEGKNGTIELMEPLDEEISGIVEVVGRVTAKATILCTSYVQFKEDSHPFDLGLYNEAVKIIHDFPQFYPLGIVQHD

[2] = target: CST (CTC1-STN1-TEN1) (human) (UniProt Q2NKJ3+Q9H668+Q86WV5); conditions: FA: 200 mM NaCl, KCl or LiCl, 20 mM HEPES pH 7.4, 1 mM DTT, 22-25 C, 375 or 750 pM oligo, Kd,app +/- SEM, EMSA: 20 mM HEPES pH 7.4, 200 mM KCl, 1 nM 32P oligo
Chain of CST (CTC1-STN1-TEN1) (human) (Q2NKJ3 whole entry, chain 1 of 3): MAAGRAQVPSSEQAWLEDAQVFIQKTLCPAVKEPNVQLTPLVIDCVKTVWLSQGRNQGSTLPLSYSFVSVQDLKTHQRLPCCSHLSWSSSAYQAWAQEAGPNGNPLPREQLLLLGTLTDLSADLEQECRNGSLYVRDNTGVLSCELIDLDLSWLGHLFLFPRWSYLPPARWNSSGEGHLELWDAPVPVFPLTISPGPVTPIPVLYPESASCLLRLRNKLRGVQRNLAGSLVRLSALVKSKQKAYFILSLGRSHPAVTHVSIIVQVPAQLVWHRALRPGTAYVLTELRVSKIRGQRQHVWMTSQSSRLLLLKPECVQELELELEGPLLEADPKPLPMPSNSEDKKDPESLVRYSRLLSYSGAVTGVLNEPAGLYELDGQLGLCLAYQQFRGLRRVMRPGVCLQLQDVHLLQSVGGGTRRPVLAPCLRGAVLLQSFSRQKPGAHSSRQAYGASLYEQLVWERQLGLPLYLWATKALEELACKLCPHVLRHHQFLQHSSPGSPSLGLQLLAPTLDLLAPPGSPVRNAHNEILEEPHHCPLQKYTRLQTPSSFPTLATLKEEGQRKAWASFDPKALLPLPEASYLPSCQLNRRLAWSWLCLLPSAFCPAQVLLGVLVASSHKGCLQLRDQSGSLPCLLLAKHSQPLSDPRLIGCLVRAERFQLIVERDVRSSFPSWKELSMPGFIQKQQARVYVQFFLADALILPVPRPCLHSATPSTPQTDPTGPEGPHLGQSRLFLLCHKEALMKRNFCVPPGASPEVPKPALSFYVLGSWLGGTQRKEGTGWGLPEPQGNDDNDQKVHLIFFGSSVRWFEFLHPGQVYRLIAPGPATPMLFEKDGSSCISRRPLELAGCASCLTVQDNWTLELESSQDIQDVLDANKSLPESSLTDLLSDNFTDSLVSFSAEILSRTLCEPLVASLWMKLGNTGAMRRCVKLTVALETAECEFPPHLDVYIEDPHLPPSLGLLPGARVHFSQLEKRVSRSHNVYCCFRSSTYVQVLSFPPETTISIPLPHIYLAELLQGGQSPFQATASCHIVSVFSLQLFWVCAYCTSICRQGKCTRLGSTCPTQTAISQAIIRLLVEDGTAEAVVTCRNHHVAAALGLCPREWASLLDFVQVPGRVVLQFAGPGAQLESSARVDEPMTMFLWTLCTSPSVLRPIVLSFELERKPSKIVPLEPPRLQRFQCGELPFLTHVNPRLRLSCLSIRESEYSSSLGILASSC
Chain of CST (CTC1-STN1-TEN1) (human) (Q9H668 whole entry, chain 2 of 3): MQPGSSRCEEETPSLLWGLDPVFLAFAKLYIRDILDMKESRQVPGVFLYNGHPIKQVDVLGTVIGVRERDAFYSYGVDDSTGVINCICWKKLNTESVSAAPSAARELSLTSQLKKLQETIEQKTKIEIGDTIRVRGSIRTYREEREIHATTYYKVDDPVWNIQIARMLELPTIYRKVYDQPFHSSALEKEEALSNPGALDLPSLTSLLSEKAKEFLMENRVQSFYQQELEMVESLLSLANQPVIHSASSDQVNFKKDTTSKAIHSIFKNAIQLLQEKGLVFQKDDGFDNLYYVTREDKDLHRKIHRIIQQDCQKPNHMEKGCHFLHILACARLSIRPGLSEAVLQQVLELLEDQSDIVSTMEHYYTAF
Chain of CST (CTC1-STN1-TEN1) (human) (Q86WV5 whole entry, chain 3 of 3): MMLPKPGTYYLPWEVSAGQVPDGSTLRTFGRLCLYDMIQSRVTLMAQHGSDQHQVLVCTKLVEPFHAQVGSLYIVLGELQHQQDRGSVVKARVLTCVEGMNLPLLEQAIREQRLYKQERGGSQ

RPA Aro1 (human) = conditions: FA: 200 mM NaCl, KCl or LiCl, 20 mM HEPES pH 7.4, 1 mM DTT, 22-25 C, 375 or 750 pM oligo, Kd,app +/- SEM; EMSA: 20 mM HEPES pH 7.4, 200 mM KCl, 1 nM 32P oligo
RPA Aro4 (human) = conditions: FA: 200 mM NaCl, KCl or LiCl, 20 mM HEPES pH 7.4, 1 mM DTT, 22-25 C, 375 or 750 pM oligo, Kd,app +/- SEM; EMSA: 20 mM HEPES pH 7.4, 200 mM KCl, 1 nM 32P oligo
RPA Aro3 (human) = conditions: FA: 200 mM NaCl, KCl or LiCl, 20 mM HEPES pH 7.4, 1 mM DTT, 22-25 C, 375 or 750 pM oligo, Kd,app +/- SEM; EMSA: 20 mM HEPES pH 7.4, 200 mM KCl, 1 nM 32P oligo

Q: Tel30 was tested. Which pKd (RPA AroB (human)) did it give?
A: Its pKd is 8.97 and 8.72 and 9.44.

Q: And the pKd (RPA AroC (human))?
A: Its pKd is 9.21 and 8.79 and 9.55.

Q: What about the pKd (RPA AroA (human)) of the same substance?
A: Its pKd is 9.32 and 9.11 and 9.54.

Q: What about the pKd [1] of the same substance?
A: The pKd was 9.02 and 9.09 and 9.49.

Q: What about the pKd ([2]; 200 mM LiCl) of the same substance?
A: The pKd was 8.28.

Q: And the pKd [2]?
A: Its pKd is 7.17 and 6.95.

Q: Tel40 was tested. Which pKd [1] did it give?
A: The pKd was 8.89 and 8.96 and 9.05.

Q: And the pKd ([2]; 200 mM LiCl)?
A: Its pKd is 9.14.

Q: And the pKd [2]?
A: The pKd was 9.13 and 8.96.

Q: How did the pKd (RPA AroA (human)) turn out when Tel22 was run?
A: Its pKd is 8.62 and 8.60 and 9.44.

Q: And the pKd [1]?
A: Its pKd is 8.91 and 8.70 and 9.46.

Q: And the pKd ([2]; 200 mM KCl, printed >=, incomplete curve)?
A: Its pKd is less than 6.47.

Q: What about the pKd ([2]; 200 mM LiCl) of the same substance?
A: Its pKd is 8.17.

Q: What about the pKd [2] of the same substance?
A: Its pKd is 6.97.

Q: Tel18 was tested. Which pKd (RPA AroB (human)) did it give?
A: Its pKd is 9.30 and 9.18 and 9.35.

Q: What about the pKd (RPA Aro1 (human)) of the same substance?
A: Its pKd is 8.33 and 8.60 and 8.25.

Q: And the pKd (RPA AroC (human))?
A: Its pKd is 9.23 and 9.59 and 9.31.

Q: And the pKd (RPA Aro4 (human))?
A: Its pKd is 8.46 and 8.04 and 8.29.

Q: And the pKd (RPA AroA (human))?
A: Its pKd is 9.10 and 9.47 and 9.44.

Q: And the pKd [1]?
A: The pKd was 9.14 and 9.30 and 9.18.

Q: What about the pKd ([2]; 200 mM LiCl) of the same substance?
A: The pKd was 8.17.

Q: And the pKd [2]?
A: Its pKd is 8.11 and 8.03.

Q: And the pKd (RPA Aro3 (human))?
A: Its pKd is 9.62 and 9.25 and 9.19.

Q: What does the source list for Tel60?
A: pKd [1]: 9.10 and 9.16; pKd ([2]; 200 mM LiCl): 8.92; pKd [2]: 7.97 and 8.05
